Results as given in doi:10.1101/2021.07.14.452405.

Tests used:
[1] = target: Melbournevirus major capsid protein (Melbournevirus); test: cryo-EM structure
[2] = target: Melbournevirus penton base protein (Melbournevirus); test: cryo-EM structure

Melbournevirus major capsid protein (natural protein)
stoichiometry N [1]: 3

Melbournevirus penton base protein (natural protein)
stoichiometry N [2]: 5
